Measured values reported in patent US6713604 (TEXAS BIOTECHNOLOGY, dated 2004).
Bridges are numbered along the chain shown (N, C = ends). Where no end group is shown, it is not given here. [ ]: non-standard residue; d: D form. MPEG5000 = polyethyleneglycol of 5000 molecular weight, attached to the N-terminal Cys; dPen = CC(C)(S)[C@@H](N)C(=O)O

target: integrin α4β1 (human) (UniProt P13612); test: inhibition of HL-60 cell (α4β1) binding to VCAM-IgG coated beads, fluorimetry
Sequence (P13612 34-1032, chain 1 of 2): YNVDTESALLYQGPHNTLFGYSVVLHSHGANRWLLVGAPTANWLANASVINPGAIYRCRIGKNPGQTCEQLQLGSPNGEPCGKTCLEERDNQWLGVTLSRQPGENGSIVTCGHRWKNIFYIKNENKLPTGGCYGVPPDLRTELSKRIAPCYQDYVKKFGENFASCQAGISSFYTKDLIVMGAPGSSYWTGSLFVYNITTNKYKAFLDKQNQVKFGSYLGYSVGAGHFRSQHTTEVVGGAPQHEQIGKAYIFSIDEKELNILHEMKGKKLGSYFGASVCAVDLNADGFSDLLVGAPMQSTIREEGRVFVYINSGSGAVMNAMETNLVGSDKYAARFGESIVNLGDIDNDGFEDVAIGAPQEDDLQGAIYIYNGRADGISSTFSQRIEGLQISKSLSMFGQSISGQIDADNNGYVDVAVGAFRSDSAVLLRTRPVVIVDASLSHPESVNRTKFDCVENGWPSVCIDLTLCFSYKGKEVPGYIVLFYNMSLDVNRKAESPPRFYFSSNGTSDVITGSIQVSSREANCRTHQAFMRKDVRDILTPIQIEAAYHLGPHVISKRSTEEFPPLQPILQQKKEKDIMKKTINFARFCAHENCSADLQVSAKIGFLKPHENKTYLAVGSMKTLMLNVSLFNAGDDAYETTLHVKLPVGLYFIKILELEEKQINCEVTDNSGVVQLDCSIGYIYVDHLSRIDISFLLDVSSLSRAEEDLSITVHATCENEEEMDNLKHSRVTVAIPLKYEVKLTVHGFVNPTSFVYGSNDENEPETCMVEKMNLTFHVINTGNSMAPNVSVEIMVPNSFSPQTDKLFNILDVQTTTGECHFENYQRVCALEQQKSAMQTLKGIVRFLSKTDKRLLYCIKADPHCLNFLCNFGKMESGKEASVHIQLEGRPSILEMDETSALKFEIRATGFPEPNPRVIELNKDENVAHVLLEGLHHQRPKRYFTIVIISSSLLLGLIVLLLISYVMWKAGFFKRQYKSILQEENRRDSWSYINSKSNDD
Sequence (P05556 21-798, chain 2 of 2, further chain): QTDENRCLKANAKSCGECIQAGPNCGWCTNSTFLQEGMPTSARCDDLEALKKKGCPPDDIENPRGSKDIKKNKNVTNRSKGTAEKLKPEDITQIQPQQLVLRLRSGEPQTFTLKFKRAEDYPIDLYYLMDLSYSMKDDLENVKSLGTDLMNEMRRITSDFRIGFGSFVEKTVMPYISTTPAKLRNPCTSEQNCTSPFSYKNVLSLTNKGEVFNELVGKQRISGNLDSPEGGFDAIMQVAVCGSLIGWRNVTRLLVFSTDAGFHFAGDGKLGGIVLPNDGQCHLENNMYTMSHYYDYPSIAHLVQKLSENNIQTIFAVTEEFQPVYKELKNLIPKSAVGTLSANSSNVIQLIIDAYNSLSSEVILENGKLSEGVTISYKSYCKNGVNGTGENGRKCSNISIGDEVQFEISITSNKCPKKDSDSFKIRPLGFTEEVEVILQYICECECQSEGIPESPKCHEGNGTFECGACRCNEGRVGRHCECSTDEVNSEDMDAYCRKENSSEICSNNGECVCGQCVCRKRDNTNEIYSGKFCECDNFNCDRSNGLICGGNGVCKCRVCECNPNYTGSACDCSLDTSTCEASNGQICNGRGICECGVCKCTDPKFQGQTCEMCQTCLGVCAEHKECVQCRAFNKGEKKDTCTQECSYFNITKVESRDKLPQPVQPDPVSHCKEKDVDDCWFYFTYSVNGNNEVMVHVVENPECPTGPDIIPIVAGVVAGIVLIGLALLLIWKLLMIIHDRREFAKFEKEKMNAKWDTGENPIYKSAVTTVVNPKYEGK

peptide concentration that significantly inhibits binding | Binder
< 10 µM | [dC]SWLDV[dC]-OH (disulfide 1-7; N-terminus assumed; SMILES CC(C)C[C@@H]1NC(=O)[C@H](Cc2c[nH]c3ccccc23)NC(=O)[C@H](CO)NC(=O)[C@H](N)CSSC[C@H](C(=O)O)NC(=O)[C@H](C(C)C)NC(=O)[C@H](CC(=O)O)NC1=O) [SEQ ID NO 39]

target: T1, integrin α4β1 (human, UniProt P13612 34-1032; P05556 21-798); test: as above
T1 construct: whole, on cells; also called VLA-4; very late antigen-4
T1 sequence (P13612 34-1032, chain 1 of 2): as the sequence (P13612 34-1032, chain 1 of 2) above
T1 sequence (P05556 21-798, chain 2 of 2): as the sequence (P05556 21-798, chain 2 of 2, further chain) above
Method: The media was collected and active protein was purified by immunoprecipitation using Dynal magnetic polystyrene beads coated with goat anti-mouse IgG. Following immunoprecipitation, the beads bound cells that expressed the integrin α_4β_1 such as Ramos and HL-60.
HL-60 cells were fluorescently labeled with Calcein AM C-3099 (Molecular Probes) and resuspended in 1 ml of binding buffer (Hank's balanced salt solution, pH 7.4, 1.0 mM CaCl_2, 1.0 mM MgCl_2). The beads (10 µl, 4×10^6 beads/ml) were placed in wells of a 96-well microtiter dish with 10 µl of peptide at various concentrations. The beads were incubated with 10 µl of labeled cells (10^7 cells/ml) for 10 min at room temperature. Following immobilization of the beads onto the plastic with a magnet, unbound cells were removed by washing three times with binding buffer. The remaining bound cells were lysed in 50 mM Tris, pH 7.4, 5.0 mM EDTA, 1.0% NP-40 and quantitated by fluorimetry using a Millipore Cytofluor 2350 fluorimeter. Dose response curves were calculated and IC$50$ values determined. Alternatively, the percent adhesion was determined at a single peptide concentration for comparison among peptides.

peptide concentration that significantly inhibits binding | Binder
< 10 µM | EWLDVPEWLDV (cyclic: lactam formed by condensation of the N and C terminus, Head-to-tail cyclic lactam) [SEQ ID NO 6]
< 10 µM | CPEWLDVC-OH (disulfide 1-8; N-terminus assumed; SMILES CC(C)C[C@@H]1NC(=O)[C@H](Cc2c[nH]c3ccccc23)NC(=O)[C@H](CCC(=O)O)NC(=O)[C@@H]2CCCN2C(=O)[C@@H](N)CSSC[C@@H](C(=O)O)NC(=O)[C@H](C(C)C)NC(=O)[C@H](CC(=O)O)NC1=O, Disulfide cyclic peptide) [SEQ ID NO 40]
< 10 µM | SWLDVC-OH (thioether (positions not given here); not fully specified (N-terminus, bridges); printed as CH2CO-Ser-Trp-Leu-Asp-Val-Cys-acid; also: sulfide, sulfoxide or sulfone not given here, also called CH2CO-Ser-Trp-Leu-Asp-Val-Cys-acid) [SEQ ID NO 9]
< 10 µM | MPEG5000-CWLDVC-OH (disulfide 1-6, Disulfide cyclic peptide; also called MPEG5000-Cys-Trp-Leu-Asp-Val-Cys-acid) [SEQ ID NO 41]
< 10 µM | cyclo(EWLDVD) (not fully specified (residue 3), Head-to-tail cyclic lactam; also called Glu-Trp-Leu-Asp-Val-Asp) [SEQ ID NO 3]
< 10 µM | CEFLDYC-OH (disulfide 1-7; N-terminus assumed; SMILES CC(C)C[C@@H]1NC(=O)[C@H](Cc2ccccc2)NC(=O)[C@H](CCC(=O)O)NC(=O)[C@@H](N)CSSC[C@@H](C(=O)O)NC(=O)[C@H](Cc2ccc(O)cc2)NC(=O)[C@H](CC(=O)O)NC1=O, Disulfide cyclic peptide; also called Cys-Glu-Phe-Leu-Asp-Tyr-Cys-acid) [SEQ ID NO 38]
< 10 µM | [dPen]WLDVC-OH (disulfide 1-6; N-terminus assumed; SMILES CC(C)C[C@@H]1NC(=O)[C@H](Cc2c[nH]c3ccccc23)NC(=O)[C@H](N)C(C)(C)SSC[C@@H](C(=O)O)NC(=O)[C@H](C(C)C)NC(=O)[C@H](CC(=O)O)NC1=O, Disulfide cyclic peptide; also called dPen-Trp-Leu-Asp-Val-Cys-acid) [SEQ ID NO 42]

Further lines, the binder ahead of its results:

Binder | peptide concentration that significantly inhibits binding
{CH2CO}-EWLDVC-OH (thioether N-6; also: sulfide, sulfoxide or sulfone not given here, also called CH2CO-Glu-Trp-Leu-Asp-Val-Cys-acid) [SEQ ID NO 10] | < 10 µM
EWLDV (cyclic: lactam formed by condensation of the N and C terminus, Head-to-tail cyclic lactam; also called Glu-Trp-Leu-Asp-Val) [SEQ ID NO 4] | < 10 µM
EWLDD (cyclic: lactam formed by condensation of the N and C terminus, Head-to-tail cyclic lactam; also called Glu-Trp-Leu-Asp-Asp) [SEQ ID NO 5] | < 10 µM
[dC]EWLDVC-OH (disulfide 1-7; N-terminus assumed; SMILES CC(C)C[C@@H]1NC(=O)[C@H](Cc2c[nH]c3ccccc23)NC(=O)[C@H](CCC(=O)O)NC(=O)[C@H](N)CSSC[C@@H](C(=O)O)NC(=O)[C@H](C(C)C)NC(=O)[C@H](CC(=O)O)NC1=O, Disulfide cyclic peptide; also called dCys-Glu-Trp-Leu-Asp-Val-Cys-acid) [SEQ ID NO 35] | < 10 µM
GPEFLDV (cyclic: lactam formed by condensation of the N and C terminus, Head-to-tail cyclic lactam; also called Gly-Pro-Glu-Phe-Leu-Asp-Val) [SEQ ID NO 7] | < 10 µM
